Test results: patent US20240245805A1 (Orna Therapeutics, Inc., priority 2020, published 2024)

Test system: HEK293 cells
Type: cell-based, human
Conditions: circular RNA encoding Gluc with the listed IRES (UTR truncated to 675 nt) transfected into HEK293 cells; supernatant after 24 hours

Row | Molecule | Expression (luminescence from secreted Gluc protein)
1 | Farmington virus (nucleic acid, lipid formulation; source: /note="Description of Unknown: Farmington virus sequence") ACGACGCATAAGCAGAGAAACATAAGAGACTATGTTCATAGTCACCCTGTATTCATTATTGACTTTTATGACCTATTATTAGACCCTTCACGGGTAAATCCTTCTCCTTGCAGTTCTCGCCAAGTACCTCCAAAGTCAGAACG | 1.22E+05
2 | Hubei tombus-like virus 9 (nucleic acid, source: /note="Description of Unknown: Hubei tombus-like virus 9 sequence") DNA: GGACCATCCAGGCAGGTGTAGGCTAGTACCCTCACCTGACCTGTCGCGATGTTTGGCTTTGTGAGGCTTGTGGGAGGATCCCTTGGCCCATGCATTGCTGCTGTCATCGTGAAAAATGTTGTATGCTCGCACCTGGCGTGGAGGAAACGGCATTTGACGGATGCTAAGGAGGATTTGAAGGTCCTCAACTCCCATGCCTTATTACAAGTCCCCTTTCCTTCAAGCTTCGAGCCCACGTCTGTGACGAGCAGAGGTGAGGTTGGAGTCAAGAGGAGTCCTATTCAAGCTGTTCGCAGCAAGAACCATAAAACTTTCATTGCTCAATGGGCAAGAGCGGCTAAGGCTCGGTTCTCGTTTGCACGACAGTGTGAGCGGAGCCCTGTAAATGTCGCGGCCCTTCATCGGTGGTTTGCATCGGAGTTTAAGAAAATTGGCATGAACTTGCTCCAGGTTTCGTACGTGATCGATGAGGTTGTTGAACTTAGTTTGGAACCAACGTATGAGCGTATGGTGTCCGAAACTAAGAAGCAATTCCGTCATCGGGCACGTATGGAATACTACAACGAGAAAAAATGCCTTGAAAAGATCCACTAGGAACGC | 9.28E+04
3 | Hubei picorna-like virus 2 (nucleic acid, source: /note="Description of Unknown: Hubei picorna-like virus 2 sequence") DNA: AGCAACTTCTTTCTGAAAACTAGCTAGAGTTCGACGATCTCTCTGGCTAATGACAAATAACCAATCAAAAAGTCAAATGTTCATGTATATATATATTTAGTAGTGACCTTTATTTAGAAAAACTTTAGATGATTTATCGTCAAGTTGCCCTTTGTGAAGCGATCAGCTTTTTATATCGTTTCATTTTTGTATACGTCTTAATTGACGTTGTAAGTACGTTTTGCATACCTCACATTGAGGATAGTATCGTTTCCTGACTAAGAAGTTAAACTAGTCTACCAATAGCAACCATATAGGATATAGCTTTGTTTTTAACAAGGTTTAATCTGATCTTATGCTCTTGCTTACGGTGTTTTATGTATAGAAAAGTTTTTATAAAAACTACATAATTGTCAAAAGAAAAAGCGTTACGTACTGACGCATTTATGTTCACAGTGTGACACAAACCTTCTATATTTTGATTGTAAAATAGGCTTTGCCTGACCATTTATCAAATACAAACTGTTTCAAACGCCTCTCCGAGCCATATTGGCCGACGCGAATCGACATAACAGGGTGAGTTTACAGCTGCAGTTGCAGCCGAGGATCCACTTATTTGAGAGAGAATTACTCTTAACGAAATTTTGAAGTCACTTCTACACAGTTAAGTCTGAGTAGGCGTTATCCAAACGTAAA | 1.95E+05
4 | Human rhinovirus 1 (nucleic acid, listed as Rhinovirus sp.) DNA: TTAAAACTGGGTGTGGGTTGTTCCCACCCACACCACCCAATGGGTGTTGTACTCTGTTATTCCGGTAACTTTGTACGCCAGTTTTTCCCTCCCCTCCCCATCCTTTTACGTAACTTAGAAGTTTTAAATACAAGACCAATAGTAGGCAACTCTCCAGGTTGTCTAAGGTCAAGCACTTCTGTTTCCCCGGTTGATGTTGATATGCTCCAACAGGGCAAAAACAACAGATACCGTTATCCGCAAAGTGCCTACACAGAGCTTAGTAGGATTCTGAAAGATCTTTGGTTGGTCGTTCAGCTGCATACCCAGCAGTAGACCTTGCAGATGAGGCTGGACATTCCCCACTGGTAACAGTGGTCCAGCCTGCGTGGCTGCCTGCGCACCTCTCATGAGGTGTGAAGCCAAAGATCGGACAGGGTGTGAAGAGCCGCGTGTGCTCACTTTGAGTCCTCCGGCCCCTGAATGCGGCTAACCTTAAACCTGCAGCCATGGCTCATAAGCCAATGAGTTTATGGTCGTAACGAGTAATTGCGGGATGGGACCGACTACTTTGGGTGTCCGTGTTTCACTTTTTCCTTTATTAATTGCTTATGGTGACAATATATATATTGATATATATTGGCATC | 7.40E+07
5 | Harrier picornavirus 1 (nucleic acid, source: /note="Description of Unknown: Harrier picornavirus 1 sequence") DNA: GATGTGTGACGGTGTAATTACTTTCCGGATCCCACTTTCCTATTATAACTCTTTCATCCCAAGGTTAGGGAAAGAACCTGGCTCGGTACCACCAGACCCTCCGCCACGCTAGTGGACTCTCCGGAGATAACGGTACCCCCTTTGTAGTCACCTGTGCTGGTGAAGAACCACCTAGTATTGCTTGGGTGCGTGCCGCCTAGCTTCCATTTCTTCTGGAGCACTGTGCAATGAGGTTTCCCCACTTGGTAACAAGTGCCTCAGGTCCCGCAAGGATACTGTGGGGTGGTGTGACCGCAGGGAGCTGTCTCCACGGCTCCTCTAATGTTACGCCGCTATCCACAGGCCAGTGCGTGTCATCGATCCCGGATGACAGAGCTAGTATTGCGAACCCCCAAGTAAGAAAAGTGGCTAGTAACCTGATAGCTGGTGAAGAGGGTGGGTCAGTTGAGTAGATGCCCTAGAGGTACCCGAAAGGATCTGACTAGGGACCCGTGACTATACATTAGGTAAACCGGGTATAAAAACCATGAAAAACTGACCACTTTTCTTTTAACCTCTTCTTTCTTTTTATGTGTGTTAAGTGTTTTGAGTTTGGACTGTACCTTGCCCGCCTTTCTTGGATTTTCTCTATCGCTCTTCTTACACCTACTGTTATCAAGGCACTCTTTAGAGATA | 1.47E+05
6 | Hepacivirus P (nucleic acid, listed as Hepacivirus sp.) DNA: ACATGGGGGGGGGCTGACAGTGAGTACACTGTGCCAAGCAGGTGCTACGCTATGCCTAGGTGCTGCTGTAGGCCAAGGACATGTCCCAGTCATCCCAGGTGAGGGGGGGGGTTCCCCTCACCGCTGCCACTGCCTGATAGGGTCCTGCCGGAGGGTCTCGGTGTCCGGCTGTAC | 6.04E+05
7 | Hubei zhaovirus-like virus 1 (nucleic acid, source: /note="Description of Unknown: Hubei zhaovirus-like virus 1 sequence") DNA: GTGCAGGATGGCCTTTCCCATCTTAAGTGGTTTGTAGGATTTCGTGGGTCCATACCCCCCGATTTCTTGGTACGTATTCCATGCACGGAGAATACGACCAAAACTCTTATTTCAAAAAATATTATTTTTTACTCTTGTGGGCTGAGTGCGACCCACCAGTTCCAGCTTAGCAACCTGGAAGTTGTTGGAGATTTATGGAACCAAATTACACATGCGTGGAGTGCCGCCACTCCGTATCTGTTCACTCATTACGCGATTAAGTTCTGCGACGAGACGAGCGAA | 1.03E+05
8 | Feline infectious peritonitis virus (nucleic acid, lipid formulation; source: /note="Description of Unknown: Feline infectious peritonitis virus sequence") ACTTTTAAAGTAAAGTGAGTGTAGCGTGGCTATAACTCTTCTTTTACTTTAACTAGCCTTGTGCTAGATTTGTCTTCGGACACCAACTCGAACTAAACGAAATATTTGTCTCTCTATGAAACCATAGAAGACAAGCGTTGATTATTTCACCAGTTTGGCAATCACTCCTAGGAACGGGGTTGAGAGAACGGCGCACCAGGGTTCCGTCCCTGTTTGGTAAGTCGTCTAGTATTAGCTGCGGCGGTTCCGCCCGTCGTAGTTGGGTAGACCGGGTTCCGTCCTGTGATCTCCCTCGCCGGCCGCCAGGAGA | 1.35E+05
9 | Human TMEV-like cardiovirus (nucleic acid, listed as Cardiovirus sp.) DNA: TCCGACGTGGTTGGAATTAACATCTTTTCCGACGAAAGTGCTATTATGCCTCCCCGATTGTGTGATGCTTTCTGCCCTGCTGGGCGGAGCGTCCTCGGGTTGAGAAACCTTGAATCTTTTCCTTTGGAGCCTTGGCTCCCCCGGTCTAAGCCGCTTGGAATATGACAGGGTTATTTTCCAAACTCTTTATTTCTACTTTCATGGGTTCTATCCATGAAAAGGGTATGTGTTGCCCCTTCCTTCTTTGGAGAATCTGCGCGGCGGTCTTTCCGTCTCTCAACAGGCGTGGATGCAACATGCCGGAAACGGTGAAGAAAACAGTTTTCTGTGGAAATTTAGAGTGGACATCGAAACAGCTGTAGCGACCTCACAGTAGCAGCGGATTCCCCTCTTGGCGACAAGAGCCTCTGCGGCCAAAAGCCCCGTGGATAAGATCCACTGCTGTGAGCGGTGCAACCCCAGCACCCTGGTTCGATGGCCATTCTCTATGGAACCAGAAAATGGTTTTCTCAAGCCCTCCGGTAGAGAAGCCAAGAATGTCCTGAAGGTACCCCGCGCGCGGGATCTGATCAGGAGACCAATTGGCAGTGCTTTACGCTGCCACTTTGGTTTAAAAACTGTCACAGCTTCTCCAAACCAAGTGGTCTTGGTTTTCCAATTTTGTTGACTGACAAT | 4.48E+07
10 | Hubei sobemo-like virus 3 (nucleic acid, source: /note="Description of Unknown: Hubei sobemo-like virus 3 sequence") DNA: GAGATGTTTGCGTGGGCCGTTGCGCTGCGGGCGGCCCACCTCCCTACGGGGACCGTGAGACACCGCTGGGGAAGGCCCCCACCCCCGGCCAAGGGGATCCTGCCGAGAGGCAGGAGAAAGAGGCCCAGCCCTCTGGGGCGCCTTTAGGGGTGCCTGGGAGGGAAGTACCCGAGCCGGGCGGCCGGTCGGGTGCGGCTGTGCAGTTCGAGGCTAACCGTAAGGAAGGCCTGAGCTGCCTCGGCTTGTCGGAAAGGAAGACGAAGGCACTTATCAAGGCTTTCAGGAAGCAGGAGCGCAATTACAGCGCGCGCCGTGCGGCCTGGATTAACCGCATTTGGCCG | 1.17E+05
11 | Hubei tombus-like virus 32 (nucleic acid, source: /note="Description of Unknown: Hubei tombus-like virus 32 sequence") DNA: TTCGGGTTTACCCGCGTAAGCGGCCACACTGACTGGTTGTCGGTGTTGAATTTGTATACCAGATGAGGAGACGTTACCACCGTCTCGGCAGTGCTACGTCTGGGAAAGGACTGTGATAGTGGACAGTCCTACCGTCTTTAGATACATTGCGTTGTGTATAGCCCGGGAGGGATTAACTAATAGCAACGCAATGCACACGGCGGTTCGGATTTGCTTGACTGATGGAAAGACATCTAAGTTCTAATTGAACC | 9.23E+04
